Measurements reported in the domain aggregation screens of Martell et al. (2025).

Test: soluble fraction after stress (log2 fold change); higher = more stays soluble; pooled small domains, quantitative proteomics
Conditions: stress: 50 degC
Summary of the method: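 Pooled custom libraries of small protein domains were each held under stress at 50°C. The read-out, high-throughput quantitative proteomics, tracked how much of each protein stayed soluble. This is reported as a base-two log fold change used to indicate aggregation propensity. Higher values mean more protein remains in solution.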

Sequence	soluble fraction (log2)
HMYDAEAINKFFDIENWDFGETFYFQELSAYIMNQLSPKLVTILIVPRQTTQAFGSLFEIKSEPDEIFAS	-0.107
HMEVQVGKQVRAFRETLGMTVQQFAERTGFSAALLAQIENRMVSPSLGTLVKIANTFGTTVSSFIG	0.0076
HMDDHLSFLAARLPDGASFDTDFDALGIDSFGMIALRAEVEERLGEQIADSDWTKVERPSEILAMLERK	-0.272
HMEEDDGVDFHERLTELNDEQVYYLINTEPAKVIALALDQLGQKRKINIMNRFNPDMKHSIIMELGKL	-0.516
HMTASTLSYSKFNEQVVQNQVRKVTFQGEQVKGELISGQTFTTTVPANDTTLWPMLKAHNVDTAVTAA	0.229
HMSVLVLPMLKELTHEDREVVELFYLNDMSVREIALIISVPIGTVKSRLHRARAQLKHQIVNLNQ	-3.03
HMSPQIDYFDDEELDVYRQIAPEAYTDEQIEVFRDILYTLRPEEVEEWLISLEKREINLPLILRQEAIELI	0.369
HMTFTQFAESHGVIIKSLKASDKIQRGPTVAHPKSDNGAWLWDGNRGGVMAWDGDGQWYWFK	-1.95
HMQPLRQGDFVTSEVVKVQDGTAVLRTAQGTLLSASLTGNLGLLPGDRVETVVVEASPGRFVLRVLDIIR	-0.15
HMVLGDQTFQSASAPKVFFGGDAAYGPKNIITAVAHGHDAAVSIDRFLHGEDVSKRPGPQVNLVS	0.144
HMHMSKKLADSIISLRRKHGFSQEQLAEKIGVTRQAISNWERGTATPDVETLNLIAKLFDMDLLAIINGE	0.0766
HMNIYIEFGRRLAFIRQNSKLSQSQIAQKLNIAQSTYAGYEKGVRKIPLEIIVQLSKILNISPTILILG	-3.91
HMANLNFDMSQIVASRYQEKAAELGVTAPSLARTDYNTQEQATYEFVAREIIADYYDDRVAPFNDLIPE	-0.223
HMIHKTDAINLGQRLLKSSLKEFDVSLKDIPNKTLMYILSEYKFNSLDDLYREIGLGNVIPKLVALRMAP	-0.423
HMRRPTYPTVTTEAGMVVEDRSSGFVGDIVRWSFEGVTLRDRQQQLRHFTWKPGGFLINGTPVTLKRPE	-0.629
HMKEILLITGKGLHSGQDDVYKSAQLSKLRYSVPEFIKSNLEISQLILSVETPLQKDGGDGALLIK	0.13
HMMTDAEKTFIFFSHLSSVEDHIAYGDKQFYMSLFWQHENKRELSSSQLYHLERLYNKYSMEEIEKKEEFS	-0.78
HMNDEFYAVVRESYAGYALVKPLDEDVGYDILSVSVKNLKVGDIIRLKVKNIKEIYPPEAEVLEVEVLQ	0.00135
HMNISALKGKIGEVYLKIPAHNAGKGKVLISLKGTHHELYAITRSGEDISSGEFVKVIEIEDEILVVEK	-0.58

Sequence	soluble fraction (log2)
HMPKLSNNHMAVWQAIRSRTAKGEPSTRAVIRDDLKAAGMDTSKHFSRWLTKLIDLGMVVKDGENLSIR	-0.16
HMAFEDYAGEYRSAADFAESLHEDTGTEIPESLRYYIDWQALARDMALNGEIMVFQTGFDEVHIFWS	-0.517
HMKHKYWEIKERIKKDILNEVYKKGESIPSERDLAGIYDVTRVTVQKAMAMLVQEGYIERIHGKGMFVLKN	-0.801
HMSTEEYDRGYEQGLEEAAKADDAWVANLIKIYSQNTPESMPETMKGRLDAFLYEQQRRAQSVPEM	0.307
HMQSYSTIIGVIELRLSGIGYRTTKARYGIGNSTVTLIMNRFKETGFTLDDLKTMEPTKVEALFYPP	-0.873
HMQTLQTTSLRVSENQLFILDQQALPQEKRWLAADNVALLVDHIHTLRVRGAPLIGLSASLLLALLAGRLT	-0.0766
HMVNGTPADPYDVLGVESSASPEELRAAWQTLVRQNHPDQLMARGVPLEAVKLAEARLVAINQAWDDLTK	0.0363
HMKHYMKITDISLQTRDKNRVNVSVDGKYRFSLDVFQVGELGLKVGREYTDEELTALEDESQFG	-1.41
HMVSKSDVQRALEKVEPVLRKLGGSTVEKVRVMARQATLVFEMLKSWWKGEIDLPWKTVAAMTVTLLYL	-0.266
HMVDKNDLTAIDGIGPFLEKKLNDVGVFTYADIAGWDAAKIEEITQQISFFEGRIEKDDWVGQAQKLIDDQ	-0.157
HMRDQAIDIYKTVHSVAEPYKEVFLLRVLGELSFKEISHIFGKSESWAKVTFFRAKIKVVEKREES	-3.74
HMIAKIEGQISYVGNRFLIVDVSGVGYKLFVTNEAISLSKVEESIKLWVHTAVRENSIDLYG	-0.7
HMSIASASVKEKIRDIVSSEPPQKPFSDAKIAEILAEDGIAIARRTVAKYREEIGIPTKSLRKR	0.0195
HMRALPAGQADLLKWIDGVTPRSVEELELLSGLEPGRLSELLMELELAGIVRAVAGDSYIKISKS	-0.462
HMGTGADQVSWKTGDKVTHKKWGEGTVVKVSGSGNDKELDIAFPQQGVKRLLASFAPIKKVT	0.168
HMAGTELASIKEIQSLVDRSEEALSARNFFWPKDKSESMLLSFRNMFSRLKLTKMDVQIFHGIFKVMEKS	-0.0116
HMNWQLITDPKELRELVQKTIADNEAGTSRLREGDMGPLEFLTGIIMKKTRGLADPTMVKALLKEELNI	0.132
HMNVNTNTILKSLMETYPDSTVFKKAEIVSIANSLGFKKSDYSPLTSTDNRTDVRGQYDLSAVIIPMRESN	-0.13
HMKEKPLWAIRITELREEHYFTQTDVSKALGIAQTTYAGYETGRHEPDFETMIKIADIYKVSLDYLIGR	-1.27
